The source of these data is US20230349919A1.

Positions count from the first letter of the chain named.

For test [1], the target named is human IL-4Rα (hIL-4Rα) monomeric protein (human) (UniProt P24394). Briefly: barcoded-antigen count on source cell (scRNA-seq).
For test [2], the target named is human IL-6Rα (hIL-6Rα), barcoded negative control antigen (human) (UniProt P08887). As to the kind of experiment: barcoded-antigen count on source cell (scRNA-seq).
Sequence of human IL-6Rα (hIL-6Rα), barcoded negative control antigen (human) (P08887 20-358 limits assumed): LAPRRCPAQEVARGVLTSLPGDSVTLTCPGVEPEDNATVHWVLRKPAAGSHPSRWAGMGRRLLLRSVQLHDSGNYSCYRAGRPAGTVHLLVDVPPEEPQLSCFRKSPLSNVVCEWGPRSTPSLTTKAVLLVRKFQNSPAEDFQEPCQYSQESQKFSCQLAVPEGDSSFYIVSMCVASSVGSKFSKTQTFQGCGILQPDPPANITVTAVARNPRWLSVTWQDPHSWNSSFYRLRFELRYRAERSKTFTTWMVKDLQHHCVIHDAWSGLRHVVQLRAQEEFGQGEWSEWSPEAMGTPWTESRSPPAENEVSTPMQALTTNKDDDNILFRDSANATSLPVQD

B1: Table 1 Line # 39 antibody (SP_B_cell) (antibody, human IgG4, V domains shown)
VH: EVQLVESGGDLVQPGRSLRLSCAASGFTFDDYAMYWVRQTPGKGLEWVSRITWNSGSIGYAGSVQGRFTISRDNAKNSLYLQMNSLRAEDSALYYCAKDIGGSYLGFDYWGQGTLVTVSS
VL: EIVLTQSPGTLSLSPGERVTLSCRASQSVSATYFAWYQQKPGQPPRLLIYGASNRATGIPDRFSGSGSGTDFTLTISRLEPEDFAVYYCQQNGNSYTFGQGTILEIK
B1 yielded an REGN560.L15 ab raw in test [1] of 3560 counts. The molecule further gave an REGN78.L15 ab raw in test [2] of 17 counts.

B2: Table 1 Line # 49 antibody (SP_Plasma_cell) (antibody, human IgG4, V domains shown)
VH: EVHLLESGGGFIQPGGSLRLSCAASGFTFSTYAMNWVRLAPGKGLEWVSTISGSGGFTSYTDSVQGRFTISRDNSKNKLYLQINNLTAEDTAVYYCAKDRRIVGATGFDYWGQGALVTVSS
VL: DIQMTQSPSSLSASAGDRVTITCRASQSISSYLNWYQQKPGKAPKLLIYAASSLQSGVPSRFSGSGSGTDFTLTISSLQPEDSATYYCQQSYGFHTFGQGTRLEIK
In turn, B2 returned an REGN78.L15 ab raw in test [2] of 2 counts.

B3: Table 1 Line # 35 antibody (SP_B_cell) (antibody, human IgG4, V domains shown)
VH: EVQLVESGGGLVKPGGSLRLSCAASGFTFSSYSMNWVRQAPGKGLEWVSSISSSSSYIYYADSVKGRFTISRDNAKNSLYLQMNSLRAEDTAVYYCARDRSSSPLENWGQGTLVTVSS
VL: DIQMTQSPSSVSASVGDRVTITCRASQGISSWLAWYQQKPGKAPKLLIYAASSLQSGVPSRFSGSGSGTDFTLTISSLQPEDFATYYCQQANSFPITFGQGTRLEIK
Take B3: in test [2], the REGN78.L15 ab raw was 33 counts.

B4: Table 1 Line # 1 antibody (BM_Plasma_cell) (antibody, human IgG4, V domains shown)
VH: EVQLVESGGGLVKPGGSLRLSCAASGFTFSSYSMNWVRQAPGKGLEWVSSISSSSSYIYYADSVKGRFTISRDNAKNSLYLQMNSLRAEDTAVYYCASLAARPFWGQGTMVTVSS
VL: B3 VL with K42R, I96L, Q100G, R103K, L104V
B4 yielded an REGN78.L15 ab raw in test [2] of 271 counts.

B5: Table 1 Line # 50 antibody (SP_Plasma_cell) (antibody, human IgG4, V domains shown)
VH: EVKLLESGGGLVQPGGSLRLSCAASGFSFSTYAMNWVRQAPGKGLEWVSAITGSGGSTYYADSVKGRFTMSRDNSKNTLYLQMNSLRAEDTAVYYCAKDRRGAFDIGGQGTMVTVSS
VL: B3 VL with A43V, L46F, S53N, I96F, Q100P, R103K, L104V, E105D
For B5, the REGN560.L15 ab raw in test [1] turned out to be 924 counts.

B6: Table 1 Line # 38 antibody (SP_B_cell) (antibody, human IgG4, V domains shown)
VH: EVHLVESGGGLAKPGGSLRLSCTASGFTFSTYNLNWVRQAPGKGLEWVSYISRSSVYIYYADSLKGRFTISRDDAKNSLYLQMNSLRAEDTAVYYCVRDDYGDYVPLDYWGQGTLVTVSS
VL: AIQMTQSPSSLSASVGDRITITCRASQGISNDLGWYQQKPGKAPKLLIFAASSLQSGVLSRFSGSGSGTDFTLTISSLQPEDVATYFCLQDYNFPRTFGQGTKVEIK
In test [1], B6 had an REGN560.L15 ab raw of 6050 counts. The molecule further had an REGN78.L15 ab raw in test [2] of 66 counts.

B7: Table 1 Line # 3 antibody (BM_Plasma_cell) (antibody, human IgG4, V domains shown)
VH: EVQLVESGGGLVQPGRSLRLSCAASGFTFDDYAMHWVRQVTGKGLEWVSGINWNSGNIGYADSVRGRFTISRDNAKNSLYLQMNSLRAEDTALYYCAKDSGSSWYGYFDLWGRGTLVTVSS
VL: DIQMTQSPSTLSASVGDRVTITCRASQSISRWLAWYQQKPGKAPKFLIYKASSLESGVPSRFSGSGSGTEFTLTISSLQPDDFATYYCQQYNSDSRTFGQGTKVEIK
Regarding B7, the REGN78.L15 ab raw in test [2] worked out at 236 counts.

B8: Table 1 Line # 46 antibody (SP_Plasma_cell) (antibody, human IgG4, V domains shown)
VH: EVQLEASGGDLVQPGRSLRLSCAASGFIFDDFGMHWVRQAPGKGLEWVSGISWNGGHIGYADSVKGRFTISRDNAKNSLYLQMNSLRAEDTALYYCAKEHSSSWYGFFDFWGRGTLVTVSS
VL: DIQMTQSPSSLSASVGDRVTITCRASQGLSNSVAWYQQKPGQIPRLLISAAASLQSGVPSRFSGSGSGTDFTLTISRLQPEDVATYYCQNYNSAPRTFGQGTNVEIK
The molecule B8 displayed an REGN78.L15 ab raw in test [2] of 2 counts.

B9: Table 1 Line # 53 antibody (SP_Plasma_cell) (antibody, human IgG4, V domains shown)
VH: EIQLVESGGGLVQPGRSLRLSCAASGFTFDDYAMHWVRQAPGKGLEWVSGINWNNGSLGYADSVKGRFTISRDNAKNSLYLQMNSLRTEDTALYYCVKDTGSWASYYGMDVWGHGTTVTVSS
VL: DIQMTQSPSSLSASIGDRVTITCRASQGIRNDLGWYQQKPGKAPKRLIYAASSLQSGVPSRFSGSGSGTEFTLTISSLQPEDFATYYCLQHNSYPYTFGQGTKLEIK
In test [2], B9 showed an REGN78.L15 ab raw of 5 counts.

B10: Table 1 Line # 54 antibody (SP_Plasma_cell) (antibody, human IgG4, V domains shown)
VH: QVQLVQSGAEVKKPGASVKVSCKASGYTFTNYGISWVRQAPGQGLEWMGWISVYNGNTNYAQKLQGRVTMTTDTSTSTAYMEVRSLRSDDTAVYYCARGVNWNYVFDYWGQGTLVTVSS
VL: B9 VL with I15V, A50V, A51V, Y96W, L104V
With B10, the REGN78.L15 ab raw in test [2] came to 26 counts.

B11: Table 1 Line # 11 antibody (BM_Plasma_cell) (antibody, human IgG4, V domains shown)
VH: EVQLVESGGGLVQPGRSLRLSCAASGFTFDDYAMHWVRQAPGKGLEWVSGISWNSGSIGYADSVKGRFTISRDNAKNSLYLQMNSLRAEDTALYYCARDYSSAWYGYFDSWGQGTLVTVSS
VL: DIQMTQSPSSLSASVGDRVTITCRASQGINNYLAWYQQKPGKIPKLLIFTASTLQSGVPSRFSGSGSGTDFTLTINSLQPEDVATYYCQNYNSVPRTFGQGTKVEIK
As to B11, the REGN78.L15 ab raw in test [2] was 115 counts.

B12: Table 1 Line # 15 antibody (BM_Plasma_cell) (antibody, human IgG4, V domains shown)
VH: B11 VH with G10A, T28A, S55G, G56A, I58L, V64L, A88S, Y94F, S110Y
VL: B11 VL with G28D, N30S, I43V, F49Y, T50A, N76S, E81Q
Molecule B12 had an REGN78.L15 ab raw in test [2] of 158 counts.

B13: Table 1 Line # 12 antibody (BM_Plasma_cell) (antibody, human IgG4, V domains shown)
VH: QVQLVESGGGVVQPGRSLRLSCAASGFTFSSYGMHWVRQAPGKGLEWVSVISYDGSNKYYADSVKGRFTISRDNSKNTLFLQVNSLRAEDTAVYYCAKEGRTGFDYWGQGTLVTVSS
VL: B11 VL with S26R, N30S, Y36F, I43V, F49Y, T50A, N76S, N90K, V94A, R96W
In test [2], B13 had an REGN78.L15 ab raw of 348 counts.

B14: Table 1 Line # 18 antibody (BM_Plasma_cell) (antibody, human IgG4, V domains shown)
VH: EVQLVQSGAEVKKPGESLKISCKGSGYRFTTNWIGWVRQMPGKGLEWMGIIYPDDSDTRYSPSFQGQVTISADKSINTAYLHWNSLKSSDTAIYYCARGANWFDPWGQGTLVTVSS
VL: EIVLTQSPGILSLSPGKRATLSCRASQSVSSNFLAWYQQKPGQAPRLLIYGTSSRANGIPDRFSGSGSGTDFTLTISGLEPEDFAEYYCQQYGSSVTFGQGTRLEIK
As for B14, the REGN78.L15 ab raw in test [2] turned out to be 55 counts.

B15: Table 1 Line # 40 antibody (SP_Plasma_cell) (antibody, human IgG4, V domains shown)
VH: QVQLQESGPGLVKPSETLSLTCTISGGSISTYYWSWIRQPPGKGLEWIGYIYYSGNTNYNPSLKSRVTISVDTSKNQFSLKLNSVTAADTAVYYCARHRGSYVYGMDVWGQGTTVTVSS
VL: DIQMTQSPSSLSASLVDRVTITCRASQTISSYLNWYQQKPGKAPKLLIYGASILQSGVPSRFSGSGSGTDFTLTISSLQPEDHAVYFCQQSYSSPTFGGGTKVEIK
Regarding B15, in test [2], the REGN78.L15 ab raw amounted to 1 counts.

B16: Table 1 Line # 37 antibody (SP_B_cell) (antibody, human IgG4, V domains shown)
VH: QVHLVESGGDVVQPGRSLRLSCAASGFTFSYYGMHWVRQAPFKGLEWVAVIWYDGSNKYYADSVKGRFTITRDNSKNTVYLQMNSLRAEDTAIYYCARWGGFGVTGTHLDYWGQGTLVTVSS
VL: DIQLTQSPSLLSASVGDRVTITCWASQDIAGHFAWYQQKPGTVPKLLIYAISTLDSGVPSRFSGSRSGTEFTLTISSLQPEDFATYYCQHLNSYPYTFGQGTKLEIK
As to B16, in test [2], the REGN78.L15 ab raw is 60 counts.
